Assay results taken from patent US20210388087A1 (Chugai, published 2021).

Biological target: T1, CD3 epsilon homodimer protein (UniProt P07766 23-126)
T1 construct: also called CD3 (CD3 epsilon)
Experiment: SPR, antibody over immobilised CD3e homodimer;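 also: SPR at 25 °C with CD3 epsilon homodimer amine-coupled to a CM4 sensor chip and antibody flowed over as analyte in HBS-EP+ running buffer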

T1 sequence (P07766 23-126): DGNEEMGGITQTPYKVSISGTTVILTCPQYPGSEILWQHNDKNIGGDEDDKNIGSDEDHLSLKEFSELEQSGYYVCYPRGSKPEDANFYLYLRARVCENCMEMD

Row | KD ratio to GLS3000 | Binder
1 | 3.35 | CE115HA000/GLS3000 T97P (antibody, IgG1, name in Kabat numbering, V domains shown, one-arm IgG1) VH: QVQLVESGGGVVQPGRSLRLSCAASGFTFSNAWMHWVRQAPGKGLEWVAQIKAKSNNYATYYAESVKGRFTISRDDSKNSLYLQMNSLKTEDTAVYYCRYVHYGAYYGVDAWGQGTTVTVSS VL: DIVMTQSPLSLPVTPGEPASISCRSSQSLVHSNRNTYLHWYQQKPGQAPRLLIYKVSNRFSGVPDRFSGSGSGTDFTLKISRVEAEDVGVYYCGQGTQVPYPFGQGTKLEIK
2 | 0.91 | CE115HA000/GLS3000 V94K (antibody, IgG1, name in Kabat numbering, V domains shown, one-arm IgG1) VH: QVQLVESGGGVVQPGRSLRLSCAASGFTFSNAWMHWVRQAPGKGLEWVAQIKAKSNNYATYYAESVKGRFTISRDDSKNSLYLQMNSLKTEDTAVYYCRYVHYGAYYGVDAWGQGTTVTVSS VL: DIVMTQSPLSLPVTPGEPASISCRSSQSLVHSNRNTYLHWYQQKPGQAPRLLIYKVSNRFSGVPDRFSGSGSGTDFTLKISRVEAEDVGVYYCGQGTQKPYTFGQGTKLEIK
3 | 0.69 | CE115HA000/GLS3000 V51I (antibody, IgG1, name in Kabat numbering, V domains shown, one-arm IgG1) VH: QVQLVESGGGVVQPGRSLRLSCAASGFTFSNAWMHWVRQAPGKGLEWVAQIKAKSNNYATYYAESVKGRFTISRDDSKNSLYLQMNSLKTEDTAVYYCRYVHYGAYYGVDAWGQGTTVTVSS VL: DIVMTQSPLSLPVTPGEPASISCRSSQSLVHSNRNTYLHWYQQKPGQAPRLLIYKISNRFSGVPDRFSGSGSGTDFTLKISRVEAEDVGVYYCGQGTQVPYTFGQGTKLEIK
4 | 0.88 | CE115HA000/GLS3000 V51E (antibody, IgG1, name in Kabat numbering, V domains shown, one-arm IgG1) VH: QVQLVESGGGVVQPGRSLRLSCAASGFTFSNAWMHWVRQAPGKGLEWVAQIKAKSNNYATYYAESVKGRFTISRDDSKNSLYLQMNSLKTEDTAVYYCRYVHYGAYYGVDAWGQGTTVTVSS VL: DIVMTQSPLSLPVTPGEPASISCRSSQSLVHSNRNTYLHWYQQKPGQAPRLLIYKESNRFSGVPDRFSGSGSGTDFTLKISRVEAEDVGVYYCGQGTQVPYTFGQGTKLEIK
5 | 1.1 | CE115HA000/GLS3000 V27cE (antibody, IgG1, name in Kabat numbering, V domains shown, one-arm IgG1) VH: QVQLVESGGGVVQPGRSLRLSCAASGFTFSNAWMHWVRQAPGKGLEWVAQIKAKSNNYATYYAESVKGRFTISRDDSKNSLYLQMNSLKTEDTAVYYCRYVHYGAYYGVDAWGQGTTVTVSS VL: DIVMTQSPLSLPVTPGEPASISCRSSQSLEHSNRNTYLHWYQQKPGQAPRLLIYKVSNRFSGVPDRFSGSGSGTDFTLKISRVEAEDVGVYYCGQGTQVPYTFGQGTKLEIK
6 | 3.21 | CE115HA000/GLS3000 V27cD (antibody, IgG1, name in Kabat numbering, V domains shown, one-arm IgG1) VH: QVQLVESGGGVVQPGRSLRLSCAASGFTFSNAWMHWVRQAPGKGLEWVAQIKAKSNNYATYYAESVKGRFTISRDDSKNSLYLQMNSLKTEDTAVYYCRYVHYGAYYGVDAWGQGTTVTVSS VL: DIVMTQSPLSLPVTPGEPASISCRSSQSLDHSNRNTYLHWYQQKPGQAPRLLIYKVSNRFSGVPDRFSGSGSGTDFTLKISRVEAEDVGVYYCGQGTQVPYTFGQGTKLEIK
7 | 0.83 | CE115HA000/GLS3000 V51G (antibody, IgG1, name in Kabat numbering, V domains shown, one-arm IgG1) VH: QVQLVESGGGVVQPGRSLRLSCAASGFTFSNAWMHWVRQAPGKGLEWVAQIKAKSNNYATYYAESVKGRFTISRDDSKNSLYLQMNSLKTEDTAVYYCRYVHYGAYYGVDAWGQGTTVTVSS VL: DIVMTQSPLSLPVTPGEPASISCRSSQSLVHSNRNTYLHWYQQKPGQAPRLLIYKGSNRFSGVPDRFSGSGSGTDFTLKISRVEAEDVGVYYCGQGTQVPYTFGQGTKLEIK
8 | 1.75 | CE115HA000/GLS3000 V94F (antibody, IgG1, name in Kabat numbering, V domains shown, one-arm IgG1) VH: QVQLVESGGGVVQPGRSLRLSCAASGFTFSNAWMHWVRQAPGKGLEWVAQIKAKSNNYATYYAESVKGRFTISRDDSKNSLYLQMNSLKTEDTAVYYCRYVHYGAYYGVDAWGQGTTVTVSS VL: DIVMTQSPLSLPVTPGEPASISCRSSQSLVHSNRNTYLHWYQQKPGQAPRLLIYKVSNRFSGVPDRFSGSGSGTDFTLKISRVEAEDVGVYYCGQGTQFPYTFGQGTKLEIK
9 | 1.25 | CE115HA000/GLS3000 V27cY (antibody, IgG1, name in Kabat numbering, V domains shown, one-arm IgG1) VH: QVQLVESGGGVVQPGRSLRLSCAASGFTFSNAWMHWVRQAPGKGLEWVAQIKAKSNNYATYYAESVKGRFTISRDDSKNSLYLQMNSLKTEDTAVYYCRYVHYGAYYGVDAWGQGTTVTVSS VL: DIVMTQSPLSLPVTPGEPASISCRSSQSLYHSNRNTYLHWYQQKPGQAPRLLIYKVSNRFSGVPDRFSGSGSGTDFTLKISRVEAEDVGVYYCGQGTQVPYTFGQGTKLEIK
10 | 1.05 | CE115HA000/GLS3000 V94D (antibody, IgG1, name in Kabat numbering, V domains shown, one-arm IgG1) VH: QVQLVESGGGVVQPGRSLRLSCAASGFTFSNAWMHWVRQAPGKGLEWVAQIKAKSNNYATYYAESVKGRFTISRDDSKNSLYLQMNSLKTEDTAVYYCRYVHYGAYYGVDAWGQGTTVTVSS VL: DIVMTQSPLSLPVTPGEPASISCRSSQSLVHSNRNTYLHWYQQKPGQAPRLLIYKVSNRFSGVPDRFSGSGSGTDFTLKISRVEAEDVGVYYCGQGTQDPYTFGQGTKLEIK
11 | 1.03 | CE115HA000/GLS3000 V27cI (antibody, IgG1, name in Kabat numbering, V domains shown, one-arm IgG1) VH: QVQLVESGGGVVQPGRSLRLSCAASGFTFSNAWMHWVRQAPGKGLEWVAQIKAKSNNYATYYAESVKGRFTISRDDSKNSLYLQMNSLKTEDTAVYYCRYVHYGAYYGVDAWGQGTTVTVSS VL: DIVMTQSPLSLPVTPGEPASISCRSSQSLIHSNRNTYLHWYQQKPGQAPRLLIYKVSNRFSGVPDRFSGSGSGTDFTLKISRVEAEDVGVYYCGQGTQVPYTFGQGTKLEIK
12 | 3.04 | CE115HA000/GLS3000 V27cS (antibody, IgG1, name in Kabat numbering, V domains shown, one-arm IgG1) VH: QVQLVESGGGVVQPGRSLRLSCAASGFTFSNAWMHWVRQAPGKGLEWVAQIKAKSNNYATYYAESVKGRFTISRDDSKNSLYLQMNSLKTEDTAVYYCRYVHYGAYYGVDAWGQGTTVTVSS VL: DIVMTQSPLSLPVTPGEPASISCRSSQSLSHSNRNTYLHWYQQKPGQAPRLLIYKVSNRFSGVPDRFSGSGSGTDFTLKISRVEAEDVGVYYCGQGTQVPYTFGQGTKLEIK
13 | 1.05 | CE115HA000/GLS3000 V94A (antibody, IgG1, name in Kabat numbering, V domains shown, one-arm IgG1) VH: QVQLVESGGGVVQPGRSLRLSCAASGFTFSNAWMHWVRQAPGKGLEWVAQIKAKSNNYATYYAESVKGRFTISRDDSKNSLYLQMNSLKTEDTAVYYCRYVHYGAYYGVDAWGQGTTVTVSS VL: DIVMTQSPLSLPVTPGEPASISCRSSQSLVHSNRNTYLHWYQQKPGQAPRLLIYKVSNRFSGVPDRFSGSGSGTDFTLKISRVEAEDVGVYYCGQGTQAPYTFGQGTKLEIK
14 | 1.5 | CE115HA000/GLS3000 V51D (antibody, IgG1, name in Kabat numbering, V domains shown, one-arm IgG1) VH: QVQLVESGGGVVQPGRSLRLSCAASGFTFSNAWMHWVRQAPGKGLEWVAQIKAKSNNYATYYAESVKGRFTISRDDSKNSLYLQMNSLKTEDTAVYYCRYVHYGAYYGVDAWGQGTTVTVSS VL: DIVMTQSPLSLPVTPGEPASISCRSSQSLVHSNRNTYLHWYQQKPGQAPRLLIYKDSNRFSGVPDRFSGSGSGTDFTLKISRVEAEDVGVYYCGQGTQVPYTFGQGTKLEIK
15 | 6 | CE115HA000/GLS3000 V51P (antibody, IgG1, name in Kabat numbering, V domains shown, one-arm IgG1) VH: QVQLVESGGGVVQPGRSLRLSCAASGFTFSNAWMHWVRQAPGKGLEWVAQIKAKSNNYATYYAESVKGRFTISRDDSKNSLYLQMNSLKTEDTAVYYCRYVHYGAYYGVDAWGQGTTVTVSS VL: DIVMTQSPLSLPVTPGEPASISCRSSQSLVHSNRNTYLHWYQQKPGQAPRLLIYKPSNRFSGVPDRFSGSGSGTDFTLKISRVEAEDVGVYYCGQGTQVPYTFGQGTKLEIK
16 | 2.59 | CE115HA000/GLS3000 V94G (antibody, IgG1, name in Kabat numbering, V domains shown, one-arm IgG1) VH: QVQLVESGGGVVQPGRSLRLSCAASGFTFSNAWMHWVRQAPGKGLEWVAQIKAKSNNYATYYAESVKGRFTISRDDSKNSLYLQMNSLKTEDTAVYYCRYVHYGAYYGVDAWGQGTTVTVSS VL: DIVMTQSPLSLPVTPGEPASISCRSSQSLVHSNRNTYLHWYQQKPGQAPRLLIYKVSNRFSGVPDRFSGSGSGTDFTLKISRVEAEDVGVYYCGQGTQGPYTFGQGTKLEIK
17 | 0.81 | CE115HA000/GLS3000 V27cL (antibody, IgG1, name in Kabat numbering, V domains shown, one-arm IgG1) VH: QVQLVESGGGVVQPGRSLRLSCAASGFTFSNAWMHWVRQAPGKGLEWVAQIKAKSNNYATYYAESVKGRFTISRDDSKNSLYLQMNSLKTEDTAVYYCRYVHYGAYYGVDAWGQGTTVTVSS VL: DIVMTQSPLSLPVTPGEPASISCRSSQSLLHSNRNTYLHWYQQKPGQAPRLLIYKVSNRFSGVPDRFSGSGSGTDFTLKISRVEAEDVGVYYCGQGTQVPYTFGQGTKLEIK
18 | 3.71 | CE115HA000/GLS3000 V27cP (antibody, IgG1, name in Kabat numbering, V domains shown, one-arm IgG1) VH: QVQLVESGGGVVQPGRSLRLSCAASGFTFSNAWMHWVRQAPGKGLEWVAQIKAKSNNYATYYAESVKGRFTISRDDSKNSLYLQMNSLKTEDTAVYYCRYVHYGAYYGVDAWGQGTTVTVSS VL: DIVMTQSPLSLPVTPGEPASISCRSSQSLPHSNRNTYLHWYQQKPGQAPRLLIYKVSNRFSGVPDRFSGSGSGTDFTLKISRVEAEDVGVYYCGQGTQVPYTFGQGTKLEIK
19 | 1.16 | CE115HA000/GLS3000 V94H (antibody, IgG1, name in Kabat numbering, V domains shown, one-arm IgG1) VH: QVQLVESGGGVVQPGRSLRLSCAASGFTFSNAWMHWVRQAPGKGLEWVAQIKAKSNNYATYYAESVKGRFTISRDDSKNSLYLQMNSLKTEDTAVYYCRYVHYGAYYGVDAWGQGTTVTVSS VL: DIVMTQSPLSLPVTPGEPASISCRSSQSLVHSNRNTYLHWYQQKPGQAPRLLIYKVSNRFSGVPDRFSGSGSGTDFTLKISRVEAEDVGVYYCGQGTQHPYTFGQGTKLEIK
20 | 1.46 | CE115HA000/GLS3000 V94I (antibody, IgG1, name in Kabat numbering, V domains shown, one-arm IgG1) VH: QVQLVESGGGVVQPGRSLRLSCAASGFTFSNAWMHWVRQAPGKGLEWVAQIKAKSNNYATYYAESVKGRFTISRDDSKNSLYLQMNSLKTEDTAVYYCRYVHYGAYYGVDAWGQGTTVTVSS VL: DIVMTQSPLSLPVTPGEPASISCRSSQSLVHSNRNTYLHWYQQKPGQAPRLLIYKVSNRFSGVPDRFSGSGSGTDFTLKISRVEAEDVGVYYCGQGTQIPYTFGQGTKLEIK
21 | 1.18 | CE115HA000/GLS3000 V94E (antibody, IgG1, name in Kabat numbering, V domains shown, one-arm IgG1) VH: QVQLVESGGGVVQPGRSLRLSCAASGFTFSNAWMHWVRQAPGKGLEWVAQIKAKSNNYATYYAESVKGRFTISRDDSKNSLYLQMNSLKTEDTAVYYCRYVHYGAYYGVDAWGQGTTVTVSS VL: DIVMTQSPLSLPVTPGEPASISCRSSQSLVHSNRNTYLHWYQQKPGQAPRLLIYKVSNRFSGVPDRFSGSGSGTDFTLKISRVEAEDVGVYYCGQGTQEPYTFGQGTKLEIK
